{"source": "paper PMC11203950", "about": "“Folding and Binding Kinetics of the Tandem of SH2 Domains from SHP2” (International Journal of Molecular Sciences, 2024)", "key": {"[1]": {"molecular_target": "T1, NSH2 domain (Homo sapiens, UniProt Q06124)", "T1 construct": "The constructs encoding the isolated NSH2 domain, the isolated CSH2 domain, and the NSH2-CSH2 tandem were subcloned in a pET28b+ plasmid vector; made in house; host or cells: Escherichia coli BL21 (DE3)", "T1 sequence (Q06124 6-102 limits assumed)": "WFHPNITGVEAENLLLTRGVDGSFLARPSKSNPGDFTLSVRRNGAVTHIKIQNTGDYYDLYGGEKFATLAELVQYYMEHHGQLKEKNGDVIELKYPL", "experiment": "Kinetic binding (stopped-flow, FRET Trp-dansyl) to the isolated NSH2 domain", "excerpt": "In analogy to our previous works, we performed kinetic binding experiments by challenging the NSH2-CSH2 tandem with peptides mimicking different portions of Gab2, namely Gab2_608–620 (binding the NSH2 domain) and Gab2_637–649 (binding the CSH2 domain). From now on, the two peptides will be named, respectively, Gab2N and Gab2C, while the peptide mimicking the entire segment of Gab2 binding both SH2 domains, and corresponding to Gab2_608–649, will be named Gab2T. To compare data with our previous works, the experiments were performed in buffer Hepes 50 mM, NaCl 300 mM, 2 mM DTT, pH 7.2, at 10 °C, by following the FRET signal occurring through the excitation of the tryptophan residues in the NSH2-CSH2 tandem with light at 280 nm and following the change in fluorescence of the dansyl group covalently attached to the N-terminus of the peptides. […]\nKinetic experiments of binding between the NSH2, CSH2 and NSH2-CSH2 tandem and the peptides mimicking different portions of Gab2 were measured by monitoring FRET between the tryptophan, acting as a donor, and a dansyl group covalently attached to the N-terminus of the peptides, acting as acceptor. […] The excitation wavelength used was 280 nm while the fluorescence emission was collected using a 475 nm cutoff glass filter. […]"}, "[2]": {"molecular_target": "T2, NSH2-CSH2 tandem of SHP2 (Homo sapiens, UniProt Q06124)", "T2 construct": "The constructs encoding the isolated NSH2 domain, the isolated CSH2 domain, and the NSH2-CSH2 tandem were subcloned in a pET28b+ plasmid vector; made in house; host or cells: Escherichia coli BL21 (DE3)", "T2 sequence (Q06124 1-220 limits assumed)": "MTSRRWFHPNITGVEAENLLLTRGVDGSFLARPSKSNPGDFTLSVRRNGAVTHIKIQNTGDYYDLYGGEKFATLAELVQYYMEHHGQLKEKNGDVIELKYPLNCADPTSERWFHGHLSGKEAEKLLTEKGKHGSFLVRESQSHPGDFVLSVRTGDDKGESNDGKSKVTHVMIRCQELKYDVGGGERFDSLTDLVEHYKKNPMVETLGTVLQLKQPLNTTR", "experiment": "Kinetic binding (stopped-flow, FRET Trp-dansyl) to the NSH2-CSH2 tandem", "conditions": "for kon (microscopic association rate constant): Hepes 50 mM, NaCl 300 mM, 2 mM DTT", "excerpt": "(§1) In analogy to our previous works, we performed kinetic binding experiments by challenging the NSH2-CSH2 tandem with peptides mimicking different portions of Gab2, namely Gab2_608–620 (binding the NSH2 domain) and Gab2_637–649 (binding the CSH2 domain). From now on, the two peptides will be named, respectively, Gab2N and Gab2C, while the peptide mimicking the entire segment of Gab2 binding both SH2 domains, and corresponding to Gab2_608–649, will be named Gab2T. To compare data with our previous works, the experiments were performed in buffer Hepes 50 mM, NaCl 300 mM, 2 mM DTT, pH 7.2, at 10 °C, by following the FRET signal occurring through the excitation of the tryptophan residues in the NSH2-CSH2 tandem with light at 280 nm and following the change in fluorescence of the dansyl group covalently attached to the N-terminus of the peptides.\nFirst, to test whether the presence of the contiguous CSH2 affected the affinity of the NSH2 domain for Gab2, we mixed a constant concentration of dansylated Gab2N (1 µM) vs. increasing concentrations of NSH2-CSH2 (ranging from 2 µM to 9 µM). The obtained observed rate constant (kobs) as a function of the concentration of the NSH2-CSH2 tandem was fitted with a linear equation, the slope corresponding to the microscopic association rate constant (kon) and the intercept with the y-axis to the microscopic dissociation rate constant (koff). To directly measure the koff, we performed displacement experiments by rapidly mixing a preincubated complex of NSH2-CSH2 with dansylated Gab2N (both at a constant concentration of 2 µM) versus a high excess of non-dansylated Gab2N (50 µM).\nWe also resorted to monitoring the binding reaction between the NSH2-CSH2 tandem with the Gab2T peptide. […] To obtain information about the ability of the NSH2-CSH2 to bind Gab2T, we performed kinetic displacement experiments in order to test the ability of Gab2T to displace Gab2N and Gab2C. Thus, in two separate experiments, we rapidly mixed a preincubated complex of NSH2-CSH2 with Gab2N (both at a constant concentration of 2 µM) versus an excess of Gab2T (50 µM) and a preincubated complex of NSH2-CSH2 with Gab2C (both at constant concentrations of 2 µM and 10 µM, respectively) versus an excess of Gab2T (50 µM) (Figure 5C). Importantly, in the two experiments, we could calculate two different rate constants, respectively, of 1.2 ± 0.3 s^−1 in the case of Gab2N, and 82 ± 1 s^−1 in the case of Gab2C. These two values are in great agreement with what was previously calculated in binding experiments of the isolated domains.\nKinetic experiments of binding between the NSH2, CSH2 and NSH2-CSH2 tandem and the peptides mimicking different portions of Gab2 were measured by monitoring FRET between the tryptophan, acting as a donor, and a dansyl group covalently attached to the N-terminus of the peptides, acting as acceptor. The experiments were performed on a single-mixing SX-18 stopped-flow instrument (Applied Photophysics, Leatherhead, UK) recording the change of dansyl emission. The excitation wavelength used was 280 nm while the fluorescence emission was collected using a 475 nm cutoff glass filter. The binding experiments were carried out at 25 °C mixing a constant concentration of dansylated peptide (1 μM) versus increasing concentrations of NSH2, CSH2 and NSH2-CSH2 (ranging from 2 to 10 μM). The buffer used was Hepes 50 mM, NaCl 300 mM, pH 7.2. The observed rate constants were calculated from the average of 3–6 single traces and by fitting the time-course for binding using a single exponential equation y=Aexp−kobs t+c where A is the amplitude of the kinetic trace, kobs the observed rate constant and c the final fluorescence value of the trace. The dependences of kobs as a function of ligand concentrations were fitted with a linear equation kobs=kon ligand+koff where kon is the microscopic association rate constant, and koff the microscopic dissociation rate constant."}, "[3]": {"molecular_target": "T2, NSH2-CSH2 tandem of SHP2", "experiment": "Kinetic displacement of peptide from NSH2-CSH2 tandem by Gab2T", "format": "binding", "conditions": "for rate constant in displacement by Gab2T: pH 7.2, 10 °C", "excerpt": "as §1\nWe also resorted to monitoring the binding reaction between the NSH2-CSH2 tandem with the Gab2T peptide. […] To obtain information about the ability of the NSH2-CSH2 to bind Gab2T, we performed kinetic displacement experiments in order to test the ability of Gab2T to displace Gab2N and Gab2C. […] These two values are in great agreement with what was previously calculated in binding experiments of the isolated domains.\nKinetic experiments of binding between the NSH2, CSH2 and NSH2-CSH2 tandem and the peptides mimicking different portions of Gab2 were measured by monitoring FRET between the tryptophan, acting as a donor, and a dansyl group covalently attached to the N-terminus of the peptides, acting as acceptor. […] The excitation wavelength used was 280 nm while the fluorescence emission was collected using a 475 nm cutoff glass filter. […] The observed rate constants were calculated from the average of 3–6 single traces and by fitting the time-course for binding using a single exponential equation y=Aexp−kobs t+c where A is the amplitude of the kinetic trace, kobs the observed rate constant and c the final fluorescence value of the trace. […]"}}, "data": [{"substance": "Gab2N: peptide mimicking Gab2_608–620 (binding the NSH2 domain); used dansylated at the N-terminus and non-dansylated", "values": [{"measurement": "koff (microscopic dissociation rate constant)", "setting": "[1]; isolated NSH2 domain, pH 7.2", "result": "1.8 ± 0.1", "unit": "s⁻¹"}, {"measurement": "kon (microscopic association rate constant)", "setting": "[2]; dansylated Gab2N 1 µM vs NSH2-CSH2 2 to 9 µM, no Gab2C, pH 7.2, 10 °C, excitation 280 nm, average of 3–6 traces", "result": "3.73e+07 ± 800000", "unit": "M⁻¹ s⁻¹"}, {"measurement": "kon (microscopic association rate constant)", "setting": "[2]; dansylated Gab2N vs NSH2-CSH2, in the presence of 10 µM Gab2C, pH 7.2, 10 °C", "result": "1.64e+07 ± 200000", "unit": "M⁻¹ s⁻¹"}, {"measurement": "kon (microscopic association rate constant)", "setting": "[2]; dansylated Gab2N vs NSH2-CSH2, in the presence of 20 µM Gab2C, pH 7.2, 10 °C", "result": "1.44e+07 ± 200000", "unit": "M⁻¹ s⁻¹"}, {"measurement": "koff (microscopic dissociation rate constant)", "setting": "[2]; displacement of preincubated NSH2-CSH2/dansylated Gab2N (both 2 µM) by excess non-dansylated Gab2N (50 µM), pH 7.2, 10 °C", "result": "1.8 ± 0.1", "unit": "s⁻¹"}, {"measurement": "KD, calculated as koff/kon, tandem compared to isolated NSH2 domain", "setting": "[2]; no Gab2C, pH 7.2", "result": "lower KD"}, {"measurement": "rate constant in displacement by Gab2T", "setting": "[3]; preincubated NSH2-CSH2 with Gab2N (both 2 µM) vs excess Gab2T (50 µM)", "result": "1.2 ± 0.3", "unit": "s⁻¹"}]}, {"substance": "Gab2T: peptide mimicking the entire segment of Gab2 binding both SH2 domains, corresponding to Gab2_608–649 (STGSVDYLALDFQPSSPSPHRKPSTSSVTSDEKVDYVQVDKE; UniProt Q9UQC2 608-649, looked up, fragment)", "values": [{"measurement": "kinetic binding to NSH2-CSH2, fluorescence change", "setting": "[2]; Gab2T not available in dansylated form", "result": "did not return any change in fluorescence"}, {"measurement": "displacement of Gab2N and Gab2C from NSH2-CSH2", "setting": "[3]; Gab2T 50 µM, pH 7.2", "result": "able to displace both peptides"}]}, {"substance": "Gab2C: peptide mimicking Gab2_637–649 (binding the CSH2 domain)", "values": [{"measurement": "binding to isolated NSH2 domain, kinetic traces", "setting": "[1]; NSH2 domain mixed with different concentrations of Gab2C peptide", "result": "no kinetic traces could be recorded"}, {"measurement": "rate constant in displacement by Gab2T", "setting": "[3]; preincubated NSH2-CSH2 (2 µM) with Gab2C (10 µM) vs excess Gab2T (50 µM)", "result": "82 ± 1", "unit": "s⁻¹"}]}]}
